The source of these data is PMC5600358.

This data set addresses WT1 ZF-KTS (zinc finger domain, -KTS isoform) (Homo sapiens (cDNA from HL-60 cells), UniProt P19544 312-407+411-449, internal_change). Briefly: EMSA. For orientation: A gel shift assay detects complexes by their altered migration in electrophoresis.

B1: ds59 (Pu59/Py59) (dsDNA)
DNA 1: GGCGGCGCGGAGGGGCGGGCGCGGGAGGAAGGGGGCGGGACGGGGCTGTGGTGCCTGT
DNA 2: ACAGGCACCACAGCCCCGTCCCGCCCCCTTCCTCCCGCGCCCGCCCCTCCGCGCCGCC
On to B1, for which the binding result is recorded as “binds”.

B2: Pu59 (G-strand) (structured_DNA)
DNA: B1 DNA 1
On to B2, for which the binding result is given as “no binding”.

B3: Py59 (C-strand) (ssDNA)
DNA: B1 DNA 2
On to B3, for which the binding result is listed as “no binding”.
